Tests used:
Assay in all cases: fluorescence anisotropy
[1] = biological target: T1, InrS (Synechocystis PCC 6803, UniProt Q55554)
T1 sequence: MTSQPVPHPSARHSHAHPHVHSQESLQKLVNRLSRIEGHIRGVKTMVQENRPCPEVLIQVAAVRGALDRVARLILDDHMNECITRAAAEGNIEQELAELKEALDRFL

[2] = biological target: T2, InrS H21E (Synechocystis PCC 6803, UniProt Q55554 61-167, H81E)
T2 sequence: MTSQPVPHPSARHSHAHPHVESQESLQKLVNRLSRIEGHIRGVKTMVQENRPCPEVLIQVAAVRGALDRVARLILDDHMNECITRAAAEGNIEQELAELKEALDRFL

[3] = biological target: T3, InrS H21L (Synechocystis PCC 6803, UniProt Q55554 61-167, H81L)
T3 sequence: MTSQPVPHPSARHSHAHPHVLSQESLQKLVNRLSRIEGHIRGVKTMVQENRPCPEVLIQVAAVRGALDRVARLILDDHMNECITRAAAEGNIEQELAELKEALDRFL

Measured: binding result

B1: nikProFA (dsDNA)
DNA 1: AAATCCATATCCCCCTTCCCCCCAGAGGGTATT
DNA 2: AATACCCTCTGGGGGGAAGGGGGATATGGATTT
binds: [1] | [2] | [3]
